Laboratory results as given in patent US20160200782A1.

What was measured:
Experiment in all cases: cell-based or functional assay
EphA7(h) (human) = EphA7(h) (human) (UniProt Q15375)
CK2(h) (human) = molecular target: CK2(h) (human)
TAO1(h) (human) = TAO1(h) (human) (UniProt Q7L7X3)
Hck(h) activated (human) = Hck(h) activated (human) (UniProt P08631)
CHK2(I157T)(h) (human) = CHK2(I157T)(h) (human) (UniProt O96017)
PKCα(h) (human) = PKCα(h) (human) (UniProt P17252)
PKBγ(h) (human) = PKBγ(h) (human) (UniProt Q9Y243)
DMPK(h) (human) = DMPK(h) (human) (UniProt Q09013)
DMPK(h) (human), sequence (Q09013 whole entry): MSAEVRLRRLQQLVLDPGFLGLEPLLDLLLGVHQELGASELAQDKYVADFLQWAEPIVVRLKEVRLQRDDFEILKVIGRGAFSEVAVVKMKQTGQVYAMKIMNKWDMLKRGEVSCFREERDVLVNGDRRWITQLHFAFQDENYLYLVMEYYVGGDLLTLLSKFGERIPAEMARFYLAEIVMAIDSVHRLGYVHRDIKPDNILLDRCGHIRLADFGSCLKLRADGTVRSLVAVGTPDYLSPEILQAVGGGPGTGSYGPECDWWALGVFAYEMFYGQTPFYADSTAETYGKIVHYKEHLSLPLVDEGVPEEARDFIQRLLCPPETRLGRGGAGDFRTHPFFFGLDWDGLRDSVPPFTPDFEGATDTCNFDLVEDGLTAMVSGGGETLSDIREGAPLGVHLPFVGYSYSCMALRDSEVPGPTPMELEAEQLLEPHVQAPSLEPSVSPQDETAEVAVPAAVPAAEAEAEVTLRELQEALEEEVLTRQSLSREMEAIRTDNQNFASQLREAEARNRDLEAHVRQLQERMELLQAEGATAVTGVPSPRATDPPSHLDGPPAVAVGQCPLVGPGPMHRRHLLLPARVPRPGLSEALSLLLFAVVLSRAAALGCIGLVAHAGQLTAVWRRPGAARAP

Pim-3(h) (human) = Pim-3(h) (human) (UniProt Q86V86)
CDK6/cyclinD3(h) (human) = CDK6/cyclinD3(h) (human) (UniProt Q00534)
GSK3α(h) (human) = GSK3α(h) (human) (UniProt P49840)
SRPK2(h) (human) = SRPK2(h) (human) (UniProt P78362)
SRPK2(h) (human), sequence (P78362 whole entry): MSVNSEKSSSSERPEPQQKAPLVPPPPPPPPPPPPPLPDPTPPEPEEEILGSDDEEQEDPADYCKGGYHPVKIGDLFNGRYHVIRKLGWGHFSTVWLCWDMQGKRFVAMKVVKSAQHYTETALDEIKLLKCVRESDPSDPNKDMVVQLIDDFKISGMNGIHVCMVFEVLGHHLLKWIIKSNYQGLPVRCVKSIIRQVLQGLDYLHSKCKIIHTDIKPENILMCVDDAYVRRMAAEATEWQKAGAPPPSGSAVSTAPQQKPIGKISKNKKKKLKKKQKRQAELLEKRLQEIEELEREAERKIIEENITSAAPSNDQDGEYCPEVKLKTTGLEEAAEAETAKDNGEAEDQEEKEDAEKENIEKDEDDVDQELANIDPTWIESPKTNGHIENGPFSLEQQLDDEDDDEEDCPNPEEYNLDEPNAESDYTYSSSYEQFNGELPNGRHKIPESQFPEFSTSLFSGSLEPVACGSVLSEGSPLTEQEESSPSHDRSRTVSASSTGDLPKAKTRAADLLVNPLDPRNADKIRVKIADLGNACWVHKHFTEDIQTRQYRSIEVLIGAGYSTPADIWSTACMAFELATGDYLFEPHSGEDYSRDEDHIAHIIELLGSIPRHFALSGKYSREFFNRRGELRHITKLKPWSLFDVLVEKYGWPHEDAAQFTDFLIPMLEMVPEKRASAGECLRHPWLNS

cKit(V560G)(h) (human) = cKit(V560G)(h) (human) (UniProt P10721)
NEK3(h) (human) = NEK3(h) (human) (UniProt P51956)
TAO2(h) (human) = TAO2(h) (human) (UniProt Q9UL54)
PKCη(h) (human) = PKCη(h) (human) (UniProt P24723)
mTOR(h) (human) = mTOR(h) (human) (UniProt P42345)
ASK1(h) (human) = ASK1(h) (human) (UniProt Q99683)
CaMKIIβ(h) (human) = CaMKIIβ(h) (human) (UniProt Q13554)
CaMKIIβ(h) (human), sequence (Q13554 whole entry): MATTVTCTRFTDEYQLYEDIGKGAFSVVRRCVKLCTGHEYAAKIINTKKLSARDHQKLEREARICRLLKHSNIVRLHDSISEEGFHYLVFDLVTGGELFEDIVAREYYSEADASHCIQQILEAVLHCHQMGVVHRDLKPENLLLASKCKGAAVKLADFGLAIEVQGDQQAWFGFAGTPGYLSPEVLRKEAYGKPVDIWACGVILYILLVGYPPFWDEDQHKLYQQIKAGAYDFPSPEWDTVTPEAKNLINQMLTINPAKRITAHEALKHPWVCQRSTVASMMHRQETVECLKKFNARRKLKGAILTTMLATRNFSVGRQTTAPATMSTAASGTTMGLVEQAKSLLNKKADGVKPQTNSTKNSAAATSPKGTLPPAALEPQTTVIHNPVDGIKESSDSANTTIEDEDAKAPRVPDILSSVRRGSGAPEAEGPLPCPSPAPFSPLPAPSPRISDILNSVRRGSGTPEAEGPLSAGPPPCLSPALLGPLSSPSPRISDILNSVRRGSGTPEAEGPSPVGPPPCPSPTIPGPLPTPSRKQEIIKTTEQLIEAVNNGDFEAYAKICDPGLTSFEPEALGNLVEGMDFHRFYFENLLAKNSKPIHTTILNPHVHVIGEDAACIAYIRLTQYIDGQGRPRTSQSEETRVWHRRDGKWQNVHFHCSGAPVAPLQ

Ab1(H396P)(h) (human) = Ab1(H396P)(h) (human) (UniProt P00519)
IR(h), activated (human) = IR(h), activated (human) (UniProt P06213)
IR(h), activated (human), sequence (P06213 1005-1310 limits assumed): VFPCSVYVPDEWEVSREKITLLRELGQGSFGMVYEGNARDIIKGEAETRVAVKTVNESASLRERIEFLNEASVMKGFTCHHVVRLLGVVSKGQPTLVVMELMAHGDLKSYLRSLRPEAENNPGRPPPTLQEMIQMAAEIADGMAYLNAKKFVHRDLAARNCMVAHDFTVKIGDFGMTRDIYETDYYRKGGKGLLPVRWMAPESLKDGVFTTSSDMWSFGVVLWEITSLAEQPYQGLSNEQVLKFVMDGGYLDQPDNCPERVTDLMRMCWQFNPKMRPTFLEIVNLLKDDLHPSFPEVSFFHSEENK

eEF-2K(h) (human) = eEF-2K(h) (human) (UniProt O00418)
GCK(h) (human) = GCK(h) (human) (UniProt Q12851)
PKCτ(h) (human) = molecular target: PKCτ(h) (human)
ErbB4(h) (human) = ErbB4(h) (human) (UniProt Q15303)
TAO3(h) (human) = TAO3(h) (human) (UniProt Q9H2K8)
Fyn(h) (human) = Fyn(h) (human) (UniProt P06241)
MLCK(h) (human) = molecular target: MLCK(h) (human)
TSSK1(h) (human) = TSSK1(h) (human) (UniProt Q9BXA7)
PDGFRα(h) (human) = PDGFRα(h) (human) (UniProt P16234)
PDGFRα(h) (human), sequence (P16234 550-1089 limits assumed): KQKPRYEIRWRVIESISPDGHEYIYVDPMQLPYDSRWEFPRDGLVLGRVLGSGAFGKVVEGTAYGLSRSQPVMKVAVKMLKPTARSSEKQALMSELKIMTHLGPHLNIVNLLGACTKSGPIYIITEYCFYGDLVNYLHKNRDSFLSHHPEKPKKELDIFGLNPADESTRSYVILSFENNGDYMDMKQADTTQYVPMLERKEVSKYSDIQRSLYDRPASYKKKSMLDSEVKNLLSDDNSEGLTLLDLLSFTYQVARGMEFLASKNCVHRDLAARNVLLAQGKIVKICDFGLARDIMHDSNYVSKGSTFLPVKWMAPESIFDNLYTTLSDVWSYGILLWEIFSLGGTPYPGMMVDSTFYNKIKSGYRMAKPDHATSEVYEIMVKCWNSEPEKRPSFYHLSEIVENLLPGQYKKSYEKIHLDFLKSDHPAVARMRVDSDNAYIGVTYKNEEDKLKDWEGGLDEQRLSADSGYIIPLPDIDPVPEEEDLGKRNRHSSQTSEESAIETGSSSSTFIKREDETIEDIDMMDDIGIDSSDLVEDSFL

FAK(h) (human) = FAK(h) (human) (UniProt Q05397)
FAK(h) (human), sequence (Q05397 whole entry): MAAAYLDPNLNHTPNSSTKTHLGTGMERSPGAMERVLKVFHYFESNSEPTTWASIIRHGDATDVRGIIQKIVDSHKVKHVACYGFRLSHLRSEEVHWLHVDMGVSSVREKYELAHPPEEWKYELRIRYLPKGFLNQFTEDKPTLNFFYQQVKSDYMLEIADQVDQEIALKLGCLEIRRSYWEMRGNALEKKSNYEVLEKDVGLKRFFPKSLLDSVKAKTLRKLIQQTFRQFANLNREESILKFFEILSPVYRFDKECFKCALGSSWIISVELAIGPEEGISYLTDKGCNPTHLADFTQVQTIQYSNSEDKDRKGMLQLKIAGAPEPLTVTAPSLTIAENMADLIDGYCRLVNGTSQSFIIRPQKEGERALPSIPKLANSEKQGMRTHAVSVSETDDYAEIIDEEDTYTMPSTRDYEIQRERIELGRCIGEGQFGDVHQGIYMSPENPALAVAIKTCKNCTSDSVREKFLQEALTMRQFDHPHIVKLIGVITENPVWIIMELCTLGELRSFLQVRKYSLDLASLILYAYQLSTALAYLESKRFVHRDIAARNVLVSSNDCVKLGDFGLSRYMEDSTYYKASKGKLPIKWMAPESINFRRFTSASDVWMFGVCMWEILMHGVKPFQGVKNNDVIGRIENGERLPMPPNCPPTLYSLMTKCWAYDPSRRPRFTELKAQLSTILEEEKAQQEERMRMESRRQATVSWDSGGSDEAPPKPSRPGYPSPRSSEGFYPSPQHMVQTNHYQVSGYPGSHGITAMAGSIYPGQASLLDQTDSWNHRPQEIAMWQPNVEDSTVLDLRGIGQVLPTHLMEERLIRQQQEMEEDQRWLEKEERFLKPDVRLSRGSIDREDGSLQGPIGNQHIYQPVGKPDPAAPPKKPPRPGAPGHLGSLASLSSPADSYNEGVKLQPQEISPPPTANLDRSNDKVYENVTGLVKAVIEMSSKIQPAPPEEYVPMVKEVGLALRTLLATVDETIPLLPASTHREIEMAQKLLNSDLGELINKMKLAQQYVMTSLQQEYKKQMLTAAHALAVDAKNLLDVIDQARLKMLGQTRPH

CDK3/cyclinE(h) (human) = CDK3/cyclinE(h) (human) (UniProt Q00526)
TSSK2(h) (human) = TSSK2(h) (human) (UniProt Q96PF2)
PAK2(h) (human) = PAK2(h) (human) (UniProt Q13177)
AMPKa1(h) (human) = AMPKa1(h) (human) (UniProt Q13131)
Rsk2(h) (human) = Rsk2(h) (human) (UniProt P51812)
ZAP-70(h) (human) = ZAP-70(h) (human) (UniProt P43403)
EphA5(h) (human) = EphA5(h) (human) (UniProt P54756)
ACK1(h) (human) = ACK1(h) (human) (UniProt Q07912)
CDK5/p35(h) (human) = CDK5/p35(h) (human) (UniProt Q00535)
PAK4(h) (human) = PAK4(h) (human) (UniProt O96013)
JAK3(h) (human) = JAK3(h) (human) (UniProt P52333)
IKKα(h) (human) = IKKα(h) (human) (UniProt O15111)
DRAK1(h) (human) = DRAK1(h) (human) (UniProt Q9UEE5)
PKCβI(h) (human) = PKCβI(h) (human) (UniProt P05771)
CaMKIδ(h) (human) = CaMKIδ(h) (human) (UniProt Q8IU85)
PKA(h) (human) = molecular target: PKA(h) (human)
IR(h) (human) = IR(h) (human) (UniProt P06213)
IR(h) (human), sequence (P06213 1005-1310 limits assumed): as the sequence (P06213 1005-1310 limits assumed) above

ZIPK(h) (human) = ZIPK(h) (human) (UniProt O43293)
ZIPK(h) (human), sequence (O43293 whole entry): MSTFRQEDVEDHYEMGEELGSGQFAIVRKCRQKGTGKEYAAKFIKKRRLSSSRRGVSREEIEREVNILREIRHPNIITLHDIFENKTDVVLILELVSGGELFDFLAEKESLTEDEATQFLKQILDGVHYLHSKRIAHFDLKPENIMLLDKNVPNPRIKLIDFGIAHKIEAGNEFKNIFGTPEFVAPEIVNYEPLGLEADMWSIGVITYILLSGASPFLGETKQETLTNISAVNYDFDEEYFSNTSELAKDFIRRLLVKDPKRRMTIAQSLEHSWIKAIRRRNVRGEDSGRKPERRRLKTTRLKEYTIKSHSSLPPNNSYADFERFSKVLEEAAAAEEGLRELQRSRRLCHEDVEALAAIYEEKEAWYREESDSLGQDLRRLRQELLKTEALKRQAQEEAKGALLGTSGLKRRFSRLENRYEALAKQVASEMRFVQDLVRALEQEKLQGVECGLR

cKit(h) (human) = cKit(h) (human) (UniProt P10721)
Lck(h) (human) = Lck(h) (human) (UniProt P06239)
Met(h) (human) = Met(h) (human) (UniProt P08581)
ULK2(h) (human) = ULK2(h) (human) (UniProt Q8IYT8)
ULK2(h) (human), sequence (Q8IYT8 1-478 limits assumed): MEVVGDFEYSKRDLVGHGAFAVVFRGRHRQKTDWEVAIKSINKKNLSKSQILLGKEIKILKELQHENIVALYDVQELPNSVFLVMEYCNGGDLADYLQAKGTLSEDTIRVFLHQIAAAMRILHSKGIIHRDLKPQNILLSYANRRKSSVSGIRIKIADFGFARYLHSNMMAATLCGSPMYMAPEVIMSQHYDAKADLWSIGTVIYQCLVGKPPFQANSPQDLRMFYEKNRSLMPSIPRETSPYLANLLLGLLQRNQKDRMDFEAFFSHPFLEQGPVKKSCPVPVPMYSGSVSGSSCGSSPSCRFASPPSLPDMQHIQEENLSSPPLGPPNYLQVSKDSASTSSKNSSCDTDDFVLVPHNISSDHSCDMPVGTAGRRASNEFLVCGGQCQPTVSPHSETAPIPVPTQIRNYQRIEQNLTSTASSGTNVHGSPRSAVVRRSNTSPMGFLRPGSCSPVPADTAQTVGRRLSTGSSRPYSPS

cSRC(h) (human) = cSRC(h) (human) (UniProt P12931)
Plk3(h) (human) = Plk3(h) (human) (UniProt Q9H4B4)
TLK2(h) (human) = TLK2(h) (human) (UniProt Q86UE8)
ULK3(h) (human) = ULK3(h) (human) (UniProt Q6PHR2)
PAK5(h) (human) = PAK5(h) (human) (UniProt Q9P286)

MMI-0100 (peptide)
% activity (EphA7(h) (human)): 193% | % activity (CK2(h) (human)): 90% | % activity (TAO1(h) (human)): 99% | % activity (Hck(h) activated (human)): 58% | % activity (CHK2(I157T)(h) (human)): 97% | % activity (PKCα(h) (human)): 94% | % activity (PKBγ(h) (human)): 105% | % activity (DMPK(h) (human)): 60% | % activity (Pim-3(h) (human)): 98% | % activity (CDK6/cyclinD3(h) (human)): 103% | % activity (GSK3α(h) (human)): 183% | % activity (SRPK2(h) (human)): 92% | % activity (cKit(V560G)(h) (human)): 94% | % activity (NEK3(h) (human)): 100% | % activity (TAO2(h) (human)): 95% | % activity (PKCη(h) (human)): 105% | % activity (mTOR(h) (human)): 102% | % activity (ASK1(h) (human)): 100% | % activity (CaMKIIβ(h) (human)): 58% | % activity (Ab1(H396P)(h) (human)): 130% | % activity (IR(h), activated (human)): 127% | % activity (eEF-2K(h) (human)): 113% | % activity (GCK(h) (human)): 98% | % activity (PKCτ(h) (human)): 110% | % activity (ErbB4(h) (human)): 73% | % activity (TAO3(h) (human)): 45% | % activity (Fyn(h) (human)): 71% | % activity (MLCK(h) (human)): 85% | % activity (TSSK1(h) (human)): 99% | % activity (PDGFRα(h) (human)): 104% | % activity (FAK(h) (human)): 98% | % activity (CDK3/cyclinE(h) (human)): 106% | % activity (TSSK2(h) (human)): 107% | % activity (PAK2(h) (human)): 71% | % activity (AMPKa1(h) (human)): 107% | % activity (Rsk2(h) (human)): 65% | % activity (ZAP-70(h) (human)): 79% | % activity (EphA5(h) (human)): 110% | % activity (ACK1(h) (human)): 106% | % activity (CDK5/p35(h) (human)): 94% | % activity (PAK4(h) (human)): 92% | % activity (JAK3(h) (human)): 150% | % activity (IKKα(h) (human)): 108% | % activity (DRAK1(h) (human)): 47% | % activity (PKCβI(h) (human)): 88% | % activity (CaMKIδ(h) (human)): 59% | % activity (PKA(h) (human)): 138% | % activity (IR(h) (human)): 112% | % activity (ZIPK(h) (human)): 80% | % activity (cKit(h) (human)): 95% | % activity (Lck(h) (human)): 346% | % activity (Met(h) (human)): 104% | % activity (ULK2(h) (human)): 123% | % activity (cSRC(h) (human)): 70% | % activity (Plk3(h) (human)): 107% | % activity (TLK2(h) (human)): 113% | % activity (ULK3(h) (human)): 142% | % activity (PAK5(h) (human)): 97%
